Experimental data taken from patent publication US20230287046A1, “MOLECULES TARGETING PROTEINS” (AELIN THERAPEUTICS, priority 2020, published 2023).
Positions count from the first letter of the chain named.

Columns and labels:
ITK R29L = molecular target: T1, ITK R29L (Homo sapiens, UniProt Q08881, R29L); test: ITK in vitro translation assay with streptavidin pull-down, R29L; conditions: 10 μM biotinylated pept-in, fraction binding normalized over vehicle
T1 construct: made in house; host or cells: cell-free: PURExpress In Vitro Protein Synthesis Kit (New England Biolabs)
T1 sequence (Q08881 1-620 R29L): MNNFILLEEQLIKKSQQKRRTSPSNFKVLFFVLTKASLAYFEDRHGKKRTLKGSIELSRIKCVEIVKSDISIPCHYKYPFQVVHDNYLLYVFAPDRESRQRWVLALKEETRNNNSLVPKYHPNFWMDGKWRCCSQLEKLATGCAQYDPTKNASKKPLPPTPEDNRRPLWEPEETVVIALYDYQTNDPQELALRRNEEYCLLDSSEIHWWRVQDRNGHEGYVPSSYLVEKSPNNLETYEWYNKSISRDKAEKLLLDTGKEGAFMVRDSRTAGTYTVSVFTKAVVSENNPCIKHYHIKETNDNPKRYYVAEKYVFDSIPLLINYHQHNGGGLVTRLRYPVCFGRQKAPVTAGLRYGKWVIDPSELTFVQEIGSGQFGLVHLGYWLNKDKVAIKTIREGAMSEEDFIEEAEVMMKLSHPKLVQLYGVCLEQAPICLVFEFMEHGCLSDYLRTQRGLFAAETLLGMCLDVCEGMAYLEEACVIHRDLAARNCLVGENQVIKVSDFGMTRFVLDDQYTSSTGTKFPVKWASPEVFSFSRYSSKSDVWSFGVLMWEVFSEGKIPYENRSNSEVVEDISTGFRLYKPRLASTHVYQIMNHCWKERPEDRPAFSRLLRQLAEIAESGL
Protocol: (§1) An in vitro translation approach was used to assess ITK mutant selective binding over wild-type for the 22-006-N001 and 22-018-N001 pept-ins. In particular, in vitro translation assays were performed using the PURExpress® In Vitro Protein Synthesis Kit (New England Biolabs) according to the manufacturer's instructions. Briefly, linear DNA fragments containing T7 promotor and terminator sequences flanking the […] (SEQ ID NO: 68)-tagged ITK coding sequence were generated using PCR and purified using the MinElute PCR Purification Kit (Qiagen). 250 ng of linear DNA was subsequently used for the in vitro translation reaction, which was performed for 2 hrs at 37° C. with shaking (1000 rpm). Indicated biotinylated pept-ins were mixed in the translation reactions from a 5 mM stock solution in 6M Urea to a final concentration of 10 μM. Upon completion of the translation reaction, biotinylated pept-ins were captured from the reaction mix using Streptavidin coated beads (Pierce) during 90 min at room temperature. Beads were next washed with TBS containing 0.1% Tween 20 and bound proteins were finally boiled off in 1×SDS loading dye (Bio-Rad) in TBS buffer. Proteins were resolved using Any kD 15-well Mini-PROTEAN gels (Bio-Rad) during SDS-PAGE and probed for ITK using a rabbit anti-[…] (SEQ ID NO: 68) tag antibody (Cell Signaling 14793) after Western blotting.

ITK R29C = molecular target: T2, ITK R29C (Homo sapiens, UniProt Q08881, R29C); test: ITK in vitro translation assay with streptavidin pull-down, R29C; conditions: 10 μM biotinylated pept-in, fraction binding normalized over vehicle
T2 construct: made in house; host or cells: cell-free: PURExpress In Vitro Protein Synthesis Kit (New England Biolabs)
T2 sequence (Q08881 1-620 R29C): T1 sequence (Q08881 1-620 R29L) with L29C
Protocol: as §1

## AKVLFFVKGSKVLFFVK (ITK pept-in) [22-018-N001]
ITK R29L
  binding to ITK R29L over wild-type: Selective binding to the mutant over wild-type

## AKVCFFVKGSKVCFFVK (ITK pept-in) [22-006-N001]
ITK R29C
  binding to ITK R29C over wild-type: Selective binding to the mutant over wild-type
